Data: patent US5847083, “Modified p53 constructs which enhance DNA binding” (The Wistar Institute of Anatomy and Biology)

B1: oligonucleotide BC (dsDNA)
DNA 1: CCGGGCATGTCCGGGCATGTCCGGGCATGT
DNA 2: ACATGCCCGGACATGCCCGGACATGCCCGG
B2: oligonucleotide Ep21 (dsDNA)
DNA 1: CCCGAACATGTCCCAACATGTTGGGG
DNA 2: CCCCAACATGTTGGGACATGTTCGGG
B3: oligonucleotide Egadd45 (dsDNA)
DNA 1: ACAGAACATGTCTAAGCATGCTGGGGA
DNA 2: TCCCCAGCATGCTTAGACATGTTCTGT

Columns and labels:
Conditions in all cases: chain copies: 4; label: 32P
p53 Ser249 = p53 Ser249 (Homo sapiens, UniProt P04637 SEQ:1-393); assay: EMSA; not activated by PAb421
Description: (§1) For analysis of DNA binding activity, these proteins were incubated with ^32P-labeled oligonucleotides and subjected to electrophoresis as described [Halazonetis (1993a and 1993b) and Waterman (1995), both cited above]. […] CCC-GAACA-TGTCC-CAACA-TGTTG-GGG, each contain a p53 binding site, which is underlined. […] Oligonucleotide Egadd45has the sequence [SEQ ID NO: 31] ACA-GAACA-TGTCT-AAGCA-TGCTG-GGGA. Oligonucleotide TF3, which contains three tandem repeats of [SEQ ID NO: 32] […], is a non-specific DNA [Halazonetis et al, *EMBO J.*, 12:1021–1028 (1993)].

p53 Arg284 delta364-393 [1] = target: T1, p53 Arg284 delta364-393 (Homo sapiens, UniProt P04637 SEQ:1-363); assay: EMSA; enhanced vs wild type
Description: as §1
(§2) Figure 4: FIG. 4 illustrates the effect of the Thr284 to Arg substitution on binding of wild-type p53 and tumor-derived p53 mutants to a high affinity DNA site, and to the sites in the p21^cip1 and gadd45 genes (oligonucleotides BC, Ep21 and Egadd45, respectively). Binding was assayed by gel retardation shift analysis on native electrophoretic gels. Only the region of the gel corresponding to the p53-DNA complexes is shown. The amino acids are abbreviated using the single letter code: Arg, R; Cys, C; Gln, Q; His, H; Lys, K.

p53 delta364-393 = p53 delta364-393 (Homo sapiens, UniProt P04637 SEQ:1-363); assay: EMSA
Description: as §1, §2

p53 Arg284 delta364-393 [2] = target: T1, p53 Arg284 delta364-393; assay: EMSA; enhancement not noted on this site
Description: as §1, §2

Binder | binding result (p53 Ser249) | binding result (p53 Arg284 delta364-393 [1]) | binding result (p53 delta364-393) | binding result (p53 Arg284 delta364-393 [2])
B1 | no binding | binds | – | –
B2 | – | binds | – | –
B3 | – | – | binds | binds
